# Like-named read-outs stand apart in the source and are kept apart here.
# T1: full-length MukB (wild type) (E. coli, UniProt P22523 1-1486)
# T1 construct: MukB, E. coli, full length; also called WT MukB; unlabeled MukB; source: purified as described (Zawadzka et al., 2018)
# T1 sequence (looked up): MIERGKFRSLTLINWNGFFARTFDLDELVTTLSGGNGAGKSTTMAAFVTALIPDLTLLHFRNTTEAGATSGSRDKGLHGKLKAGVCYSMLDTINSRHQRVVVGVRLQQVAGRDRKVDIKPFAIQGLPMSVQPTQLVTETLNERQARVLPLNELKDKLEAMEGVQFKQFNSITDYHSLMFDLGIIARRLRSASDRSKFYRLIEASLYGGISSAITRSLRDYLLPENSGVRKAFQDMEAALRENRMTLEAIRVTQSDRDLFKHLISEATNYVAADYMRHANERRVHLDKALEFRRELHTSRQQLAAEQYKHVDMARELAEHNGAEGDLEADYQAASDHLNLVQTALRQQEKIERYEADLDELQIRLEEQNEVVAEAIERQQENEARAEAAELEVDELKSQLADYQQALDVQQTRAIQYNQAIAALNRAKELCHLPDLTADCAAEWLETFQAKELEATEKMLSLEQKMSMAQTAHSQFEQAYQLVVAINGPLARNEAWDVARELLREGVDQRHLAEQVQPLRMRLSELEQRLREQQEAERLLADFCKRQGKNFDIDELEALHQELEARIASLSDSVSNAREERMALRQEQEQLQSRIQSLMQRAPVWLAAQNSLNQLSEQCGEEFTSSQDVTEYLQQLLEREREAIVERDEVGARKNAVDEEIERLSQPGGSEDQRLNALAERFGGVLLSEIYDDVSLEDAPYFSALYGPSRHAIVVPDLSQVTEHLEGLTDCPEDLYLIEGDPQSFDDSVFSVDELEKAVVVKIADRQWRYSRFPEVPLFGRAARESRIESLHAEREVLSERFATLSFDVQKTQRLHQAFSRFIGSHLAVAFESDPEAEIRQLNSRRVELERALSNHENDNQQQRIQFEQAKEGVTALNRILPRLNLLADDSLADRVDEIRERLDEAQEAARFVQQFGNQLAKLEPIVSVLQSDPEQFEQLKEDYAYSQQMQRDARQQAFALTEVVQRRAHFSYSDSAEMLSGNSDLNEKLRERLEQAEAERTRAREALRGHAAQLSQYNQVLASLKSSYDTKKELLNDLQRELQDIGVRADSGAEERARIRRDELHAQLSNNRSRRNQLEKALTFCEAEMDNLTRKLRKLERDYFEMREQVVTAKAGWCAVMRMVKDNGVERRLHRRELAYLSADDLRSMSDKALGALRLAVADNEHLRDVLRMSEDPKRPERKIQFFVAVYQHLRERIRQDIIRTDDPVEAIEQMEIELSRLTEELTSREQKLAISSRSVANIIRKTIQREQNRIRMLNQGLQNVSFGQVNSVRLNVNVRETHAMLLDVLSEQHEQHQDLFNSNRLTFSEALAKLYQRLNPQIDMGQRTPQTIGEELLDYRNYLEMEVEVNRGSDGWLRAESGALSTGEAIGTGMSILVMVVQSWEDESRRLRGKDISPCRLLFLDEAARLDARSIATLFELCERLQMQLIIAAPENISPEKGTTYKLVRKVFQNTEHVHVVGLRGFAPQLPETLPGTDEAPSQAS
# T2: full-length MukB^KKK (D697K D745K E753K) (E. coli, UniProt P22523 1-1486, D697K | D745K | E753K)
# T2 construct: MukB, E. coli, full length, with three hinge substitutions
# T2 sequence (looked up): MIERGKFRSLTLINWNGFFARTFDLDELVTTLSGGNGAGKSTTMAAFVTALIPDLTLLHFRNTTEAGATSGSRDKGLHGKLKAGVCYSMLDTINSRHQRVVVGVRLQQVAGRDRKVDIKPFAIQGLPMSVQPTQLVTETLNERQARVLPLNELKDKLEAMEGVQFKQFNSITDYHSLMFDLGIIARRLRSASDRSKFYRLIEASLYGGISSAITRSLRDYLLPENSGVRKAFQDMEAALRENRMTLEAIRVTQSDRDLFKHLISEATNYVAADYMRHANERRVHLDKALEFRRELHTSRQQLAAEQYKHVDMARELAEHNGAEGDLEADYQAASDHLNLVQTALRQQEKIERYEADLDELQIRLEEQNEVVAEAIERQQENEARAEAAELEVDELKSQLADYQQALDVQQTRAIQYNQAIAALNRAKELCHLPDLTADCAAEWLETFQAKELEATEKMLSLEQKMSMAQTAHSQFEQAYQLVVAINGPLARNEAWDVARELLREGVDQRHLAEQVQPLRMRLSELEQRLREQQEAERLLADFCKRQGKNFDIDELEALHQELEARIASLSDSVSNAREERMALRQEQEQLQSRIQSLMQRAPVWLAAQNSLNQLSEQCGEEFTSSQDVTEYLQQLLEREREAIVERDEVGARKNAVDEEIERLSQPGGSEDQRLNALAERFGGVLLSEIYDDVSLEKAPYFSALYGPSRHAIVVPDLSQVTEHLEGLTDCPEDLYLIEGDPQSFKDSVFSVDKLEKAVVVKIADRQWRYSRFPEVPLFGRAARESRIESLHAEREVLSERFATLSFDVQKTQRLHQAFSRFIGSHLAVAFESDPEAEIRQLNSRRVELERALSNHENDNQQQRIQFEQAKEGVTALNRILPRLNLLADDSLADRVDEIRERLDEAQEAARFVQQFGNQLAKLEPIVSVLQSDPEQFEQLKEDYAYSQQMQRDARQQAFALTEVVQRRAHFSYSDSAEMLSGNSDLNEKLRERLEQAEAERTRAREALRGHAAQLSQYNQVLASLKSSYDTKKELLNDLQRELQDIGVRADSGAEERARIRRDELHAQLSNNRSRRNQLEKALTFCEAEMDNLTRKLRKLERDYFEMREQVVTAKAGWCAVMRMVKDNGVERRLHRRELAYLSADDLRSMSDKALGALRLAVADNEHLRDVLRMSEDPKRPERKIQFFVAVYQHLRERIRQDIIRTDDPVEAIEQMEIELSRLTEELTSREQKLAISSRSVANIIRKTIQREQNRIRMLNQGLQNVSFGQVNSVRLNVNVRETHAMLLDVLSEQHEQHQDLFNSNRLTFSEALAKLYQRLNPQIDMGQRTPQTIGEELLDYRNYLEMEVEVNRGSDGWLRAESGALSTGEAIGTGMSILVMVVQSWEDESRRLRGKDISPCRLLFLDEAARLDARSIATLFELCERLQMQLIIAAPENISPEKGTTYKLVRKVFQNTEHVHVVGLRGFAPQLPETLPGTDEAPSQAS
# T3: MukB long hinge (LH; amino acid residues 568–863) (E. coli, UniProt P22523 568-863)
# T3 construct: MukB, E. coli, residues 568-863: dimeric globular hinge domain and 20% of the coiled-coil region; also called LH (MBP cleaved); LH2; source: NEBExpress cells (pMAL-c5X), purified (amylose, Factor Xa cleavage, HiTrap Q XL, SEC); not shown: MBP, N-terminal, cleaved
# T3 sequence (looked up): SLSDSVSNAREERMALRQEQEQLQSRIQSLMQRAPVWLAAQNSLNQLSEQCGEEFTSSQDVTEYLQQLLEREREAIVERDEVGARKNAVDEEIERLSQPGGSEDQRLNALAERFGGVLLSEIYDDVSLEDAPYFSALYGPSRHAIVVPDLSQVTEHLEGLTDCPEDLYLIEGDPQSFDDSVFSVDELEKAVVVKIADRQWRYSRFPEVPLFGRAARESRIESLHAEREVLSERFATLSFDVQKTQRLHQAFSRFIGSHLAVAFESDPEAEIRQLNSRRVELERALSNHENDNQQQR
# B1: full-length ParC, N-terminal 6xHis-tag (enzyme, E. coli, UniProt P0AFI2 1-752, looked up)
# chain: MSDMAERLALHEFTENAYLNYSMYVIMDRALPFIGDGLKPVQRRIVYAMSELGLNASAKFKKSARTVGDVLGKYHPHGDSACYEAMVLMAQPFSYRYPLVDGQGNWGAPDDPKSFAAMRYTESRLSKYSELLLSELGQGTADWVPNFDGTLQEPKMLPARLPNILLNGTTGIAVGMATDIPPHNLREVAQAAIALIDQPKTTLDQLLDIVQGPDYPTEAEIITSRAEIRKIYENGRGSVRMRAVWKKEDGAVVISALPHQVSGARVLEQIAAQMRNKKLPMVDDLRDESDHENPTRLVIVPRSNRVDMDQVMNHLFATTDLEKSYRINLNMIGLDGRPAVKNLLEILSEWLVFRRDTVRRRLNYRLEKVLKRLHILEGLLVAFLNIDEVIEIIRNEDEPKPALMSRFGLTETQAEAILELKLRHLAKLEEMKIRGEQSELEKERDQLQGILASERKMNNLLKKELQADAQAYGDDRRSPLQEREEAKAMSEHDMLPSEPVTIVLSQMGWVRSAKGHDIDAPGLNYKAGDSFKAAVKGKSNQPVVFVDSTGRSYAIDPITLPSARGQGEPLTGKLTLPPGATVDHMLMESDDQKLLMASDAGYGFVCTFNDLVARNRAGKALITLPENAHVMPPVVIEDASDMLLAITQAGRMLMFPVSDLPQLSKGKGNKIINIPSAEAARGEDGLAQLYVLPPQSTLTIHVGKRKIKLRPEELQKVTGERGRRGTLMRGLQRIDRVEIDSPRRASSGDSEE
# notes: ParC subunit of topoisomerase IV, E. coli, full length; also called His-ParC; ParC2; source: overexpressed, purified as previously published (Nolivos et al., 2016) with an added SEC step; not shown: His6, N-terminal, kept
# B2: Cy3B-labeled MatP-Cys-His (domain or fragment, E. coli)
# chain: MKYQQLENLESGWKWKYLVKKHREGELITRYIEASAAQEAVDVLLSLENEPVLVNGWIDKHMNPELVNRMKQTIRARRKRHFNAEHQHTRKKSIDLEFIVWQRLAGLAQRRGKTLSETIVQLIEDAENKEKYSDPNSSSVDKLCAAALE
# modifications: Cy3B maleimide on the single cysteine engineered into the C-terminal linker
# notes: MatP, E. coli, residues 1-132 (MatPΔ18C); C-terminal linker between MatP and its 6xHis-tag with the engineered cysteine; Labeling efficiency 89%; also called MatP-Cy3B; Cy3B-MatP; source: purified as MatP, labeled with Cy3B maleimide, excess dye removed by SEC
# B3: MatPΔ18C (1–132), C-terminal 6xHis-tag (domain or fragment, E. coli, UniProt P0A8N0 1-132, looked up)
# chain: MKYQQLENLESGWKWKYLVKKHREGELITRYIEASAAQEAVDVLLSLENEPVLVNGWIDKHMNPELVNRMKQTIRARRKRHFNAEHQHTRKKSIDLEFIVWQRLAGLAQRRGKTLSETIVQLIEDAENKEKY
# notes: MatP, E. coli, residues 1-132 (deletion of the 18 C-terminal residues); also called MatPΔ18C-His; MatP2; source: overexpressed, purified as previously published (Nolivos et al., 2016) with an added SEC step; not shown: His6, C-terminal, kept
# B4: MatP^4A (K71A, Q72A, R75A, and R77A) (domain or fragment, E. coli, UniProt P0A8N0 1-132, looked up)
# chain: MKYQQLENLESGWKWKYLVKKHREGELITRYIEASAAQEAVDVLLSLENEPVLVNGWIDKHMNPELVNRMAATIAAARKRHFNAEHQHTRKKSIDLEFIVWQRLAGLAQRRGKTLSETIVQLIEDAENKEKY
# notes: MatP, E. coli, residues 1-132 (MatPΔ18C) with four substitutions; source: site-directed mutagenesis, purified using the same protocol as MatP
# Assays:
# [1] = target: the molecule itself; assay: native MS; proteins buffer exchanged into 200 mM ammonium acetate pH 8.0, alone or mixed in different ratios (two or three components, with or without 50 bp DNA), 10 min on ice
# [2] = target: T1, full-length MukB (wild type); assay: fluorescence correlation spectroscopy (FCS); competition: MatP-Cy3B fixed at 1 nM, MukB at 400 nM; ParC variants at 10-fold, unlabeled MatP at 50-fold, DNA at 2.5-fold molar excess; conditions: both partners purified
# [3] = target: T2, full-length MukB^KKK (D697K D745K E753K); assay: fluorescence correlation spectroscopy (FCS); titration at constant 1 nM MatP-Cy3B; 20 mM Tris-HCl pH 7.5, 50 mM NaCl, 0.3 mg/mL BSA, 2 mM DTT, 0.05% Tween-20; 22 °C; fitted to the Hill equation; conditions: both partners purified
# [4] = target: T1, full-length MukB (wild type); assay: as above; conditions: both partners purified
# [5] = target: T3, MukB long hinge (LH; amino acid …); assay: native MS; proteins buffer exchanged into 200 mM ammonium acetate pH 8.0, alone or mixed in different ratios (two or three components, with or without 50 bp DNA), 10 min on ice; conditions: both partners purified
# [6] = target: T3, MukB long hinge (LH; amino acid …); assay: ITC; 100 µM MatP titrated into 10 µM LH at 25 °C; one-site model; three repeats; conditions: both partners purified
# [7] = target: the molecule itself; assay: native MS; proteins buffer exchanged into 200 mM ammonium acetate pH 8.0, alone or mixed in different ratios (two or three components, with or without 50 bp DNA), 10 min on ice; remark: listed apart in the source
# [8] = target: T3, MukB long hinge (LH; amino acid …); assay: native gel or EMSA; native PAGE; MatP or variants (7 µM) mixed with LH and/or 50 bp DNA at 1:1(:1), 30 min on ice; Coomassie and ethidium bromide staining; conditions: both partners purified
binder,measurement,setting,value
B1,stoichiometry N,[1],2
same,fold decrease in MatP-Cy3B binding to MukB at 10-fold excess of competitor,[2],3 fold
B2,Kd,[3],~1600 nM
same,Kd,[4],~250 nM
B3,stoichiometry N,[5],1 MatP dimer per LH dimer
same,stoichiometry N,[1],2
same,Kd,[6],590 nM
same,dH,[6],-16.8 kcal/mol
same,stoichiometry N,[6],0.96
B4,stoichiometry N,[7],2
same,binding result,[8],binds

# Reference: PMC8523169, “Competitive binding of MatP and topoisomerase IV to the MukB hinge domain” (eLife, 2021)
